What was measured:
[1] = molecular target: human DR4 with death domain deletion on ExpiCHO-S cells (human); assay: flow cytometry, ExpiCHO-S cells expressing human DR4, n = 2
Experimental: Binding of BisG1-FAPα-FERL/DR4-FERR, BisG1-DR4-FEAL/b12-FEAR and IgG1-DR4-FERR to DR4 of various species commonly used for nonclinical toxicology studies was assessed by flow cytometry using ExpiCHO-S cells transiently expressing DR4 from different animal species. In contrast to other species, rodents only express one DR which has highest homology with human DR5. Therefore, ExpiCHO-S cells transiently expressing rat and mouse DR protein were used instead. All DR constructs lack the intracellular DD to avoid apoptosis of transfected cells upon DR(4) activation. IgG1-b12 was used as negative control.

[2] = molecular target: T1, cynomolgus monkey FAPα on Expi293F cells (cynomolgus monkey (Macaca fascicularis), UniProt Q12884 1-760 (human entry)); assay: flow cytometry, Expi293F cells expressing cynomolgus monkey FAPα, n = 3
T1 sequence: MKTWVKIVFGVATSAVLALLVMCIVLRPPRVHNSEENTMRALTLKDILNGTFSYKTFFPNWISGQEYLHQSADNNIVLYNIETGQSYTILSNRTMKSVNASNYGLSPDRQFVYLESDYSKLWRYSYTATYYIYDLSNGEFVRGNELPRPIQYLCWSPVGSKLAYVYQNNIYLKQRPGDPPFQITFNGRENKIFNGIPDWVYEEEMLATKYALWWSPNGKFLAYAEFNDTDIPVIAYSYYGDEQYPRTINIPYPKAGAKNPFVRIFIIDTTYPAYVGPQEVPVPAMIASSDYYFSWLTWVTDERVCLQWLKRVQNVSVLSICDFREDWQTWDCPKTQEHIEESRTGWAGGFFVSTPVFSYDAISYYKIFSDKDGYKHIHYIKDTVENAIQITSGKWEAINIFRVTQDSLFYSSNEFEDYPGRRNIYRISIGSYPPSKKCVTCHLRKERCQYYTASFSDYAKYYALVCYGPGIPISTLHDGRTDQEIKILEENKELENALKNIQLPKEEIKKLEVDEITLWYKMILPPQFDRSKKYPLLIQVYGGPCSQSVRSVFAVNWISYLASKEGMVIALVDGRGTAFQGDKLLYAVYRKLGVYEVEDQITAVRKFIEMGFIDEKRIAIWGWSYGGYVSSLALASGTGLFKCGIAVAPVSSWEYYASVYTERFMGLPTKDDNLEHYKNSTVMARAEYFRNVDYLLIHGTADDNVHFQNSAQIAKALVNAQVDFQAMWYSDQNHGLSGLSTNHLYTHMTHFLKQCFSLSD
Experimental: Binding of BisG1-FAPα-FERL/DR4-FERR, BisG1-FAPα-FEAL/b12-FEAR and IgG1-FAPα-FERL to FAPα of species commonly used for nonclinical toxicology studies was assessed by flow cytometry using Expi293F cells transiently expressing FAPα from different animal species. IgG1-b12 was included as negative control.
Expi293F cells expressing recombinant FAPα from various species (human, cynomolgus monkey, dog, pig, rat or mouse) were seeded (20,000 cells/well) in 96-Well round bottom plates (Greiner Bio-one, Cat #650101). Antibody dilutions were prepared using FACS buffer, consisting of PBS (Capricorn Scientific, Cat #PBS-10XA, diluted to 1×PBS in distilled water)+1% BSA (Roche, Cat #10735086001)+0.02% Sodium Azide (Bio-World, Cat #41920044-3). Plates were centrifuged, supernatant was removed, and cells were resuspended in 100 μL of antibody dilutions (concentration range 30-0.00017 μg/mL with three-fold serial dilutions using FACS buffer) of BisG1-FAPα-FERL/DR4-FERR, BisG1-FAPα-FEAL/b12-FEAR, IgG1-FAPα-FERL and IgG1-b12 and incubated for 30 min at 4° C. […] After 30 min incubation at 4° C., cells were washed with FACS buffer and resuspended in FACS buffer supplemented with TO-PRO-3 Iodide viability marker (Invitrogen, Cat #T3605, diluted 1:4,000). Antibody binding to viable cells (gMFI of PE on TO-PRO-3 negative cells) was analyzed by flow cytometry on a FACS Celesta and FACS_Diva software (first two experiments) or iQue® 3 and FlowJo software (last experiment). gMFI was determined and visualized using GraphPad Prism. Binding curves were analyzed using nonlinear regression analysis. The concentration (pg/mL) at which 50% of the maximal effect was observed (EC₅₀) was derived from the fitted curves.

Binder	EC50 [1]	EC50 [2]
BisG1-FAPα-FERL/DR4-FERR (bispecific antibody, human IgG1, kappa, lambda, Human IgG1 bispecific made by controlled Fab-arm exchange of IgG1-FAPα-FERL and IgG1-DR4-FERR; monovalent for FAPα and for DR4; also called GEN1057) heavy 1: EVQLLESGGGLVQPGGSPRLSCEASGFTFSSYALSWVRQAPGKGLEWVSAISGSGGGRYYADSVKGRFTISRDNSKNTLFLQMNSLRAEDTAVYYCAKEGYSSSGTYWDHWGQGTLVTVSSASTKGPSVFPLAPSSKSTSGGTAALGCLVKDYFPEPVTVSWNSGALTSGVHTFPAVLQSSGLYSLSSVVTVPSSSLGTQTYICNVNHKPSNTKVDKRVEPKSCDKTHTCPPCPAPEFERGPSVFLFPPKPKDTLMISRTPEVTCVVVDVSHEDPEVKFNWYVDGVEVHNAKTKPREEQYNSTYRVVSVLTVLHQDWLNGKEYKCKVSNKALPAPIEKTISKAKGQPREPQVYTLPPSREEMTKNQVSLTCLVKGFYPSDIAVEWESNGQPENNYKTTPPVLDSDGSFLLYSKLTVDKSRWQQGNVFSCSVMHEALHNHYTQKSLSLSPG light 1: AIQMTQSPSSVSASVGDRVTITCRASQGVSSWLAWYQQKPGRAPKLLIYVASTLQSGVPSRFSGSGSGTDFTLTINSLQPEDFATYYCQQANSFPPTFGQGTRLEMKRTVAAPSVFIFPPSDEQLKSGTASVVCLLNNFYPREAKVQWKVDNALQSGNSQESVTEQDSKDSTYSLSSTLTLSKADYEKHKVYACEVTHQGLSSPVTKSFNRGEC heavy 2: QVQLQESGPGLVKPSGTLSLTCAVSGGSISSYSWWSWIRQPPGKGLEWIGELYHSGSTNYNPSLKSRVTISVDKSKNQFSLKLRSVTAADTAVYYCVRGVATIDYWGQGTLVTVSSASTKGPSVFPLAPSSKSTSGGTAALGCLVKDYFPEPVTVSWNSGALTSGVHTFPAVLQSSGLYSLSSVVTVPSSSLGTQTYICNVNHKPSNTKVDKRVEPKSCDKTHTCPPCPAPEFERGPSVFLFPPKPKDTLMISRTPEVTCVVVDVSHEDPEVKFNWYVDGVEVHNAKTKPREEQYNSTYRVVSVLTVLHQDWLNGKEYKCKVSNKALPAPIEKTISKAKGQPREPQVYTLPPSREEMTKNQVSLTCLVKGFYPSDIAVEWESNGQPENNYKTTPPVLDSDGSFFLYSRLTVDKSRWQQGNVFSCSVMHEALHNHYTQKSLSLSPG light 2: QSALTQPPSASGSPGQSVTISCTGTSSDVGGYNFVSWYQQDPGKAPKLLIYEVTKRPSGVPDRFSGSKSGNTASLTVSGLQAEDEADYYCSSYAGSNNVMFGGGTKLTVLGQPKAAPSVTLFPPSSEELQANKATLVCLISDFYPGAVTVAWKADSSPVKAGVETTTPSKQSNNKYAASSYLSLTPEQWKSHRSYSCQVTHEGSTVEKTVAPTECS	0.38 µg/mL	0.16 µg/mL
IgG1-FAPα-FERL (antibody, Bivalent monoclonal IgG1 kappa) heavy: EVQLLESGGGLVQPGGSPRLSCEASGFTFSSYALSWVRQAPGKGLEWVSAISGSGGGRYYADSVKGRFTISRDNSKNTLFLQMNSLRAEDTAVYYCAKEGYSSSGTYWDHWGQGTLVTVSSASTKGPSVFPLAPSSKSTSGGTAALGCLVKDYFPEPVTVSWNSGALTSGVHTFPAVLQSSGLYSLSSVVTVPSSSLGTQTYICNVNHKPSNTKVDKRVEPKSCDKTHTCPPCPAPEFERGPSVFLFPPKPKDTLMISRTPEVTCVVVDVSHEDPEVKFNWYVDGVEVHNAKTKPREEQYNSTYRVVSVLTVLHQDWLNGKEYKCKVSNKALPAPIEKTISKAKGQPREPQVYTLPPSREEMTKNQVSLTCLVKGFYPSDIAVEWESNGQPENNYKTTPPVLDSDGSFLLYSKLTVDKSRWQQGNVFSCSVMHEALHNHYTQKSLSLSPG light: AIQMTQSPSSVSASVGDRVTITCRASQGVSSWLAWYQQKPGRAPKLLIYVASTLQSGVPSRFSGSGSGTDFTLTINSLQPEDFATYYCQQANSFPPTFGQGTRLEMKRTVAAPSVFIFPPSDEQLKSGTASVVCLLNNFYPREAKVQWKVDNALQSGNSQESVTEQDSKDSTYSLSSTLTLSKADYEKHKVYACEVTHQGLSSPVTKSFNRGEC	–	0.16 µg/mL
BisG1-FAPα-FEAL/b12-FEAR (bispecific antibody, human IgG1, kappa, Fab-arm exchange of IgG1-FAPα-FEAL and IgG1-b12-FEAR) heavy 1: EVQLLESGGGLVQPGGSPRLSCEASGFTFSSYALSWVRQAPGKGLEWVSAISGSGGGRYYADSVKGRFTISRDNSKNTLFLQMNSLRAEDTAVYYCAKEGYSSSGTYWDHWGQGTLVTVSSASTKGPSVFPLAPSSKSTSGGTAALGCLVKDYFPEPVTVSWNSGALTSGVHTFPAVLQSSGLYSLSSVVTVPSSSLGTQTYICNVNHKPSNTKVDKRVEPKSCDKTHTCPPCPAPEFEGGPSVFLFPPKPKDTLMISRTPEVTCVVVAVSHEDPEVKFNWYVDGVEVHNAKTKPREEQYNSTYRVVSVLTVLHQDWLNGKEYKCKVSNKALPAPIEKTISKAKGQPREPQVYTLPPSREEMTKNQVSLTCLVKGFYPSDIAVEWESNGQPENNYKTTPPVLDSDGSFLLYSKLTVDKSRWQQGNVFSCSVMHEALHNHYTQKSLSLSPG light 1: AIQMTQSPSSVSASVGDRVTITCRASQGVSSWLAWYQQKPGRAPKLLIYVASTLQSGVPSRFSGSGSGTDFTLTINSLQPEDFATYYCQQANSFPPTFGQGTRLEMKRTVAAPSVFIFPPSDEQLKSGTASVVCLLNNFYPREAKVQWKVDNALQSGNSQESVTEQDSKDSTYSLSSTLTLSKADYEKHKVYACEVTHQGLSSPVTKSFNRGEC heavy 2: QVQLVQSGAEVKKPGASVKVSCQASGYRFSNFVIHWVRQAPGQRFEWMGWINPYNGNKEFSAKFQDRVTFTADTSANTAYMELRSLRSADTAVYYCARVGPYSWDDSPQDNYYMDVWGKGTTVIVSSASTKGPSVFPLAPSSKSTSGGTAALGCLVKDYFPEPVTVSWNSGALTSGVHTFPAVLQSSGLYSLSSVVTVPSSSLGTQTYICNVNHKPSNTKVDKRVEPKSCDKTHTCPPCPAPEFEGGPSVFLFPPKPKDTLMISRTPEVTCVVVAVSHEDPEVKFNWYVDGVEVHNAKTKPREEQYNSTYRVVSVLTVLHQDWLNGKEYKCKVSNKALPAPIEKTISKAKGQPREPQVYTLPPSREEMTKNQVSLTCLVKGFYPSDIAVEWESNGQPENNYKTTPPVLDSDGSFFLYSRLTVDKSRWQQGNVFSCSVMHEALHNHYTQKSLSLSPG light 2: EIVLTQSPGTLSLSPGERATFSCRSSHSIRSRRVAWYQHKPGQAPRLVIHGVSNRASGISDRFSGSGSGTDFTLTITRVEPEDFALYYCQVYGASSYTFGQGTKLERKRTVAAPSVFIFPPSDEQLKSGTASVVCLLNNFYPREAKVQWKVDNALQSGNSQESVTEQDSKDSTYSLSSTLTLSKADYEKHKVYACEVTHQGLSSPVTKSFNRGEC	–	0.35 µg/mL
IgG1-DR4-FERR (antibody, V domains shown, Bivalent monoclonal IgG1 lambda) VH: QVQLQESGPGLVKPSGTLSLTCAVSGGSISSYSWWSWIRQPPGKGLEWIGELYHSGSTNYNPSLKSRVTISVDKSKNQFSLKLRSVTAADTAVYYCVRGVATIDYWGQGTLVTVSS VL: QSALTQPPSASGSPGQSVTISCTGTSSDVGGYNFVSWYQQDPGKAPKLLIYEVTKRPSGVPDRFSGSKSGNTASLTVSGLQAEDEADYYCSSYAGSNNVMFGGGTKLTVLG	0.06 µg/mL	–
